Publication PMC2645956

Molecular target: Paracoccus denitrificans soluble cytochrome c552 fragment, wild-type (unlabeled) (Paracoccus denitrificans) (UniProt P54820)
UniProt P54820, sequence (P54820 78-176): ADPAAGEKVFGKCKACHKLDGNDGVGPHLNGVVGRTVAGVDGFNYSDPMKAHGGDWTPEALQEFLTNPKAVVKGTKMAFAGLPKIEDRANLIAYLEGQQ

Brønsted parameter ZAZB of the ionic strength dependence of k12, stopped-flow: -4
Substance: Paracoccus denitrificans soluble cytochrome c1 core fragment, wild-type (domain or fragment)
